Reference: patent US20260265789A1, “METHOD FOR IMPROVING 2, 4 DIHYDROXYBUTYRIC ACID PRODUCTION AND YIELD” (ADISSEO FRANCE S.A.S, priority 2023, published 2026)

What was measured:
yagE = test: Transcriptomic analysis during DHB fermentation: aldolase gene expression; type: cell-based, Escherichia coli; settings: in presence of significant amount of DHB
YjhH = test: as above; type: cell-based, Escherichia coli; settings: in presence of significant amount of DHB
yfaU = test: as above; type: cell-based, Escherichia coli; settings: in presence of significant amount of DHB
garL = test: as above; type: cell-based, Escherichia coli; settings: in presence of significant amount of DHB
rhmA = test: as above; type: cell-based, Escherichia coli; settings: in presence of significant amount of DHB
[1] = target: T1, Escherichia coli pyruvate aldolase Eda (E.C. 4.1.2.14) (Escherichia coli, UniProt P0A955); test: Kinetic characterization of pyruvate aldolase on OHB (coupled LdhA/NADH assay, 340 nm); type: biochemical; settings: Tris-HCl 50 mM pH 7.5, 5 mM MgCl2, 37° C., 0 to 13 mM OHB
T1 construct: coupled LdhA/NADH assay
T1 sequence (P0A955 1-213): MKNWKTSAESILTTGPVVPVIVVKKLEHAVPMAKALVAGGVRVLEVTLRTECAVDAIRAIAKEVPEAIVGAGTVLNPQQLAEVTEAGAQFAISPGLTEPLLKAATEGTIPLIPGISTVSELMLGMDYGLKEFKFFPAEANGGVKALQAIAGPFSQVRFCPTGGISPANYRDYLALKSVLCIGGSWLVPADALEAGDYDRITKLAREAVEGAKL

[2] = substrate: O=C(O)C(=O)CCO; test: purified protein, by the assay type; type: biochemical, Escherichia coli; settings: Tris-HCl 50 mM pH 7.5, 5 mM MgCl2, 37° C., 0 to 13 mM OHB
[3] = In vivo capacity to degrade OHB by deletion of genes encoding pyruvate aldolase; type: cell-based, Escherichia coli; settings: E. coli, gene deletion strains incubated with DHB
Excerpt: We measured production of formate in strains that were deleted for one of these aldolase encoding gene.

[4] = variant obtained by in vivo evolution (Bouzon et al., 2017); cited from earlier work

O=C(O)C(O)CCO (racemic) [DHB, 2,4-dihydroxybutyric acid]
Maximal Expression (yagE): 13.33
Minimal Expression (yagE): 1.82
Maximal Expression (YjhH): 3.33
Minimal Expression (YjhH): 1.25
Maximal Expression (yfaU): 1.09
Minimal Expression (yfaU): 0.9
Maximal Expression (garL): 1.32
Minimal Expression (garL): 1.06
Maximal Expression (rhmA): 1.14
Minimal Expression (rhmA): 0.98

O=C(O)C(=O)CCO [OHB, 2-oxo-4-hydroxybutyrate]
Km [1]: > 20000 µM

B1: Escherichia coli pyruvate aldolase DgoA (E.C. 4.1.2.21) (Escherichia coli K-12) (protein)
chain: MQWQTKLPLIAILRGITPDEALAHVGAVIDAGFDAVEIPLNSPQWEQSIPAIVDAYGDKALIGAGTVLKPEQVDALARMGCQLIVTPNIHSEVIRRAVGYGMTVCPGCATATEAFTALEAGAQALKIFPSSAFGPQYIKALKAVLPSDIAVFAVGGVTPENLAQWIDAGCAGAGLGSDLYRAGQSVERTAQQAAAFVKAYREAVQ
notes: coupled LdhA/NADH assay
Km ([2]; other: DgoA): 2800 µM
Vmax ([2]; other: DgoA): 0.04 µmol/min/mg
kcat ([2]; other: DgoA): 0.012 s⁻¹
kcat/Km ([2]; other: DgoA): 4.7 M⁻¹ s⁻¹

B2: Escherichia coli pyruvate aldolase YagE (E.C. 4.1.2.28) (Escherichia coli K-12) (protein)
chain: MPQSALFTGIIPPVSTIFTADGQLDKPGTAALIDDLIKAGVDGLFFLGSGGEFSQLGAEERKAIARFAIDHVDRRVPVLIGTGGTNARETIELSQHAQQAGADGIVVINPYYWKVSEANLIRYFEQVADSVTLPVMLYNFPALTGQDLTPALVKTLADSRSNIIGIKDTIDSVAHLRSMIHTVKGAHPHFTVLCGYDDHLFNTLLLGGDGAISASGNFAPQVSVNLLKAWRDGDVAKAAGYHQTLLQIPQMYQLDTPFVNVIKEAIVLCGRPVSTHVLPPASPLDEPRKAQLKTLLQQLKLC
notes: coupled LdhA/NADH assay
Km ([2]; other: YagE): 350 µM
Vmax ([2]; other: YagE): 0.63 µmol/min/mg
kcat ([2]; other: YagE): 0.04 s⁻¹
kcat/Km ([2]; other: YagE): 115 M⁻¹ s⁻¹

B3: YagE: E. coli pyruvate aldolase, E.C. 4.1.2.28, natural substrate 2-keto-3-deoxy-D-arabinonate; His-tagged recombinant protein (protein, UniProt P75682 1-302, looked up)
Putative …: B2 chain
modifications: His tag
notes: E. coli pyruvate aldolase, E.C; 4.1.2.28, natural substrate 2-keto-3-deoxy-D-arabinonate; His-tagged recombinant protein
function on OHB in vivo [3]: most efficient to degrade OHB in vivo

B4: YjhH: E. coli pyruvate aldolase, E.C. 4.1.2.28, natural substrate 2-keto-3-deoxy-D-arabinonate; His-tagged recombinant protein (protein, UniProt P39359 1-301, looked up)
Probable …: MKKFSGIIPPVSSTFHRDGTLDKKAMREVADFLINKGVDGLFYLGTGGEFSQMNTAQRMALAEEAVTIVDGRVPVLIGVGSPSTDEAVKLAQHAQAYGADGIVAINPYYWKVAPRNLDDYYQQIARSVTLPVILYNFPDLTGQDLTPETVTRLALQNENIVGIKDTIDSVGHLRTMINTVKSVRPSFSVFCGYDDHLLNTMLLGGDGAITASANFAPELSVGIYRAWREGDLATAATLNKKLLQLPAIYALETPFVSLIKYSMQCVGLPVETYCLPPILEASEEAKDKVHVLLTAQGILPV
modifications: His tag
notes: as for B3
function on OHB in vivo [3]: most efficient to degrade OHB in vivo

B5: YfaU: E. coli pyruvate aldolase, E.C. 4.1.2.53, natural substrate 2-keto-3-deoxy-L-rhamnonate (protein, UniProt P76469 1-267, looked up)
2-keto-3-deoxy-L-rhamnonate …: MNALLSNPFKERLRKGEVQIGLWLSSTTAYMAEIAATSGYDWLLIDGEHAPNTIQDLYHQLQAVAPYASQPVIRPVEGSKPLIKQVLDIGAQTLLIPMVDTAEQARQVVSATRYPPYGERGVGASVARAARWGRIENYMAQVNDSLCLLVQVESKTALDNLDEILDVEGIDGVFIGPADLSASLGYPDNAGHPEVQRIIETSIRRIRAAGKAAGFLAVAPDMAQQCLAWGANFVAVGVDTMLYSDALDQRLAMFKSGKNGPRIKGSY
function on OHB in vivo [3]: do not have any function on OHB in vivo

B6: AlaC^A142PY275D: variant of alanine-α-ketoglutarate transaminase from E coli Ec-AlaC, obtained by in vivo evolution (Bouzon et al., 2017) (protein, UniProt P77434 1-412, looked up, variant A142P Y275D)
Glutamate-pyruvate …: MADTRPERRFTRIDRLPPYVFNITAELKMAARRRGEDIIDFSMGNPDGATPPHIVEKLCTVAQRPDTHGYSTSRGIPRLRRAISRWYQDRYDVEIDPESEAIVTIGSKEGLAHLMLATLDHGDTVLVPNPSYPIHIYGAVIPGAQVRSVPLVEGVDFFNELERAIRESYPKPKMMILGFPSNPTAQCVELEFFEKVVALAKRYDVLVVHDLAYADIVYDGWKAPSIMQVPGARDVAVEFFTLSKSYNMAGWRIGFMVGNKTLVSALARIKSYHDDGTFTPLQVAAIAALEGDQQCVRDIAEQYKRRRDVLVKGLHEAGWMVEMPKASMYVWAKIPEPYAAMGSLEFAKKLLNEAKVCVSPGIGFGDYGDTHVRFALIENRDRIRQAIRGIKAMFRADGLLPASSKHIHENAE
higher catalytic activity on homoserine [4]: 100 fold

B7: GarL: E. coli pyruvate aldolase, E.C. 4.1.2.20, natural substrate 5-dehydro-4-deoxy-D-glucarate (protein, UniProt P23522 1-256, looked up)
5-keto-4-deoxy-D-glucarate …: MNNDVFPNKFKAALAAKQVQIGCWSALSNPISTEVLGLAGFDWLVLDGEHAPNDISTFIPQLMALKGSASAPVVRVPTNEPVIIKRLLDIGFYNFLIPFVETKEEAELAVASTRYPPEGIRGVSVSHRANMFGTVADYFAQSNKNITILVQIESQQGVDNVDAIAATEGVDGIFVGPSDLAAALGHLGNASHPDVQKAIQHIFNRASAHGKPSGILAPVEADARRYLEWGATFVAVGSDLGVFRSATQKLADTFKK
function on OHB in vivo [3]: do not have any function on OHB in vivo
